Measurements published in patent US20230057012A1, “TGFB INHIBITORS AND USE THEREOF” (Scholar Rock, Inc., priority 2020, published 2023).

Molecular target: antigen of FIG. 2 (not named)
Assay: SPR Biacore, Fab (FIG. 2)

B1: Ab46 Fab (Fab, V domains shown)
VH: EVQLLESGGGLVQPGGSLRLSCAASGFTFADYAMTWVRQAPGKGLEWVSAISGSGAATYFADSVKGRFTISRDNSKNTLYLQMNSLRAEDTAVYYCARVSSGHWDYDYWGQGTLVTVSS
VL: DIQLTQSPSSLSASVGDRVTITCRASQSISSYLNWYQQKPGKAPKLLIYAASGLESGVPSRFSGSGSGTDFTLTISSLQPEDFATYYCQQTYGVPLTFGGGTKVEIK
times longer bound than the reference antibody: > 50 fold
